According to WO2016155745A1 (dated 2016):

How the values were obtained:
[1] = biological target: full-length human recombinant PAD4 (human, UniProt Q9UM07 1-663); assay: ELISA, purified mAb 1:100 on PAD-coated plates (Fig. 2)
[2] = biological target: T1, full-length human recombinant PAD2 (human, UniProt Q9Y2J8 1-665); assay: as above
T1 construct: also called rhPAD2; recombinant human PAD2

[3] = biological target: T2, full-length human recombinant PAD3 (human, UniProt Q9ULW8 1-664); assay: as above
T2 construct: mature; Full-length recombinant protein coated on plates at 100 ng/mL
T2 sequence (looked up): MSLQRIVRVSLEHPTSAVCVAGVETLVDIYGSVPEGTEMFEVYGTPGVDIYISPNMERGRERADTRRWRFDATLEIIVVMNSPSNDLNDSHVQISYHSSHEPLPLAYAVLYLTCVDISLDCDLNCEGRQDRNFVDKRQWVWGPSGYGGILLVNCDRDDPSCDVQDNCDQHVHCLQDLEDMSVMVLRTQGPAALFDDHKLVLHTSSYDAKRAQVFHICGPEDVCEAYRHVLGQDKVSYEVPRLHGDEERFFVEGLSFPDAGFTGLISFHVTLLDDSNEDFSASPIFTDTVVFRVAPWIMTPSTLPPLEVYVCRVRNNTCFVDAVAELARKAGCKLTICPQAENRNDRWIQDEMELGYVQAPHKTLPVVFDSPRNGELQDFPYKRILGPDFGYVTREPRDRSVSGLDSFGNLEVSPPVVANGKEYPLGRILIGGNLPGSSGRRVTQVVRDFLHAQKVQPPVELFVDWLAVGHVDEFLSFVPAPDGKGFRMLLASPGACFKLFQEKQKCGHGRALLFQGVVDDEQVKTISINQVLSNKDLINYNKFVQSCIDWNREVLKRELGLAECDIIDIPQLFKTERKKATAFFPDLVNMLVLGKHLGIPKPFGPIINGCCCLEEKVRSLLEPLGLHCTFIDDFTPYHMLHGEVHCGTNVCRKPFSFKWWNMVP

murine recombinant PAD2 = biological target: T3, murine recombinant PAD2 (mouse, UniProt Q08642 1-673, limits assumed); assay: ELISA, culture supernatant 1:20 on mPAD2-coated plates (Fig. 3)
T3 construct: also called mPAD2; murine PAD2

[4] = biological target: T1, full-length human recombinant PAD2; assay: ELISA, culture supernatant 1:20 on PAD2-coated plates (Fig. 3)

Measured: binding result

Chain of full-length human recombinant PAD4 (Q9UM07 whole entry): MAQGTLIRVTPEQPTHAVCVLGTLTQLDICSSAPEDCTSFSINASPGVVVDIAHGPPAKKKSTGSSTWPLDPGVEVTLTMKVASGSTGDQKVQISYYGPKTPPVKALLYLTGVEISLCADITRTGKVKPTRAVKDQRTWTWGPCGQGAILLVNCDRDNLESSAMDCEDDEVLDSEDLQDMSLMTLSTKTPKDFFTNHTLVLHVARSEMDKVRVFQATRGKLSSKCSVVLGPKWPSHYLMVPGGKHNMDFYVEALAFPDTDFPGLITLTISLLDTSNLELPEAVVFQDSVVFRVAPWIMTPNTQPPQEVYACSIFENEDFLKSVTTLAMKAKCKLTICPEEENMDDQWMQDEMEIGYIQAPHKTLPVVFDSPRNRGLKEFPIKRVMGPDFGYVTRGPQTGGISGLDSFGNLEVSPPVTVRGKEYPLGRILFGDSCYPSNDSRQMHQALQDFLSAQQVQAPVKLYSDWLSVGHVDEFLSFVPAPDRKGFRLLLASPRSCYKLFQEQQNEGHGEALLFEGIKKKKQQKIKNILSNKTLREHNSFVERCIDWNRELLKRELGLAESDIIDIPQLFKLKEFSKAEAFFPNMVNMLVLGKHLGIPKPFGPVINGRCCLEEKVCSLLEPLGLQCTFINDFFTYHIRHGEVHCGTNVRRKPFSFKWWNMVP
T3 sequence (Q08642 whole entry): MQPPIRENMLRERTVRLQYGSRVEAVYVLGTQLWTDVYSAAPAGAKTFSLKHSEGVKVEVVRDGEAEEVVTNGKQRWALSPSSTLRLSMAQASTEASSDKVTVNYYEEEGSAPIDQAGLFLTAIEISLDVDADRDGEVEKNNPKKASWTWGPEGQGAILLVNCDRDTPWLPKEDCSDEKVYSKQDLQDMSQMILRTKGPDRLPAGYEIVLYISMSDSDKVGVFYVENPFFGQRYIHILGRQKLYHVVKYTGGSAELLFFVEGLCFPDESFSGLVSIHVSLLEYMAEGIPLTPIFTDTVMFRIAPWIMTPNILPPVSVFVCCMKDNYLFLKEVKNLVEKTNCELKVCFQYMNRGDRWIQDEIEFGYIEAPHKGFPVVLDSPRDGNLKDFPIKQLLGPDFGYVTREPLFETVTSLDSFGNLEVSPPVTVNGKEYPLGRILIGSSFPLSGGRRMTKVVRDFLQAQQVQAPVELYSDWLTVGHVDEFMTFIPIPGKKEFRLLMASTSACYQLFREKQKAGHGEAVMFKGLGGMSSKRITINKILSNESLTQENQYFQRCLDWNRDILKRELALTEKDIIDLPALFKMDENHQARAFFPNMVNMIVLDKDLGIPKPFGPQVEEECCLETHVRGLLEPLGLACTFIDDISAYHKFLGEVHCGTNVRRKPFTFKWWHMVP
T1 sequence (Q9Y2J8 whole entry): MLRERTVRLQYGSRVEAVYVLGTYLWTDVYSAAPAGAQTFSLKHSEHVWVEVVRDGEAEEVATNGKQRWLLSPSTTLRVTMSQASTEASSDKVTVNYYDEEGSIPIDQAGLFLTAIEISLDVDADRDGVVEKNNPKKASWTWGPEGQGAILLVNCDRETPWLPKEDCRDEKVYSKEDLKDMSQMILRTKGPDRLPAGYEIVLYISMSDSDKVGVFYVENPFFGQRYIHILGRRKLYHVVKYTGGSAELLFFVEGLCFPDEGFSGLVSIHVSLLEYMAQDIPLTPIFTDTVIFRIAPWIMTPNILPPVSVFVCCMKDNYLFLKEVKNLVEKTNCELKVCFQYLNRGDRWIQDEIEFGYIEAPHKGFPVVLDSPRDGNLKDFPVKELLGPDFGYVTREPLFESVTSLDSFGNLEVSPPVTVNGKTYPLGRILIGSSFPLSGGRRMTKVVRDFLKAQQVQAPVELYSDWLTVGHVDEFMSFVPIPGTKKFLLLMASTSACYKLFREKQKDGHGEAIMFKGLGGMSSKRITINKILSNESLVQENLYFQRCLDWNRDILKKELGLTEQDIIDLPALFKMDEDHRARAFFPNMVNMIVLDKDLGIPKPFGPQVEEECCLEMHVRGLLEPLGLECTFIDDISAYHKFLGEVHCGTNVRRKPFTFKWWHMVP

B1: mSol4 (antibody, V domains shown)
VH: LEESGGDLVKLGGSLKLSCAASGFTFSSYYMSWVRQTPEKRLELVAAIHSDGGNTYYPDTVKGRFTISRDNAKNTLYLQMSSLKSEDTALYYCARHSYYGSSYDYWGQGTTLTVSS
VL: DIVLTQSPLSLPVSLGDQASISCESSQSLVHSNGITYLHWYLQKPGQSPKLLIYKVSHRFSGVPDRFSGSGSGTDFTLKISRVEAVDLGVYFCSQSTHVPFTFGSGTKLEIKR
notes: also called cross-reactive anti-PAD antibody mSol4
binds: [1] | [2] | [3] | murine recombinant PAD2

B2: mSol3 (antibody, V domains shown)
VH: EVQLEESGADLVKPGASVKLSCKASGYTFTSYWMHWVKQRPGQGLEWIGEIIPSNGHTNYNEKFKSKATLTVDKSSSTAYMQLSSLTPEDSAVYYCARGRDFFYGFGDYWGQGTTLTVSS
VL: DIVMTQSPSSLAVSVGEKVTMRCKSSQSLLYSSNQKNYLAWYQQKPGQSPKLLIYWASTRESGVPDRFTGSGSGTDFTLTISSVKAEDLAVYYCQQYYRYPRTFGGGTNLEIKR
notes: also called cross-reactive anti-PAD antibody mSol3
binds: [1] | [3] | [4] | murine recombinant PAD2
